Series [1] concerns the molecule itself. In words: EMSA with a 22 bp double-stranded E-box DNA probe. This is an indirect sign: the gel shows DNA binding, and the filing reads the missing shift as missing homodimerisation. The text has this:
(§1) The three synthetic analogs 10, 11, and 12 can form non-covalent dimers and bind to the target E-box DNA (5′-[…]-3′). […] However, it is not possible to determine which dimeric species form in a solution containing two different monomers. For instance, upon mixing Max (11) and Omomyc (12), three different dimers (Max/Max, Omomyc/Omomyc and Max/Omomyc) can form and potentially bind to DNA (FIG. 18). To assess the activity of these protein complexes in a reliable manner, access to well-defined covalent protein dimers is critical.
On the technique in general: In EMSA bound probe runs differently from free probe, usually more slowly.

Series [2] deals with the molecule itself. Briefly: non-covalent homodimer inferred from EMSA with E-box DNA (Omomyc+Omomyc).
Source text: as §1

B1: Myc analog 10 (synthetic Myc monomer with a C-terminal cysteine) (other)
chain: NVKRRTHNVLERQRRNELKRSFFALRDQIPELENNEKAPKVVILKKATAYILSVQAEEQKLISEEDLLRKRREQLKHKLEQLGGC
notes: also called Myc 10
On to B1, for which the binding result in series [1] is given as “no binding”.

B2: Omomyc analog 12 (synthetic Omomyc monomer with a C-terminal cysteine) (other)
chain: MATEENVKRRTHNVLERQRRNELKRSFFALRDQIPELENNEKAPKVVILKKATAYILSVQAETQKLISEIDLLRKQNEQLKHKLEQLRNSC
notes: Artificial mini-protein; the structure of 12 is in a drawing; also called Omomyc 12; Omomyc (12)
Turning to B2, the binding result in series [2] is “binds”.

Values taken from patent US20240336649A1 (MIT, published 2024).
